In the Immune Epitope Database (IEDB):

How the values were obtained:
Assay in all cases: IEDB peptide-MHC binding, purified MHC/competitive/radioactivity; ≥ and ≤ were set here for values at or beyond the usual limits of such assays
Conditions in all cases: source organism: Homo sapiens
HLA-A*02:01 = biological target: HLA-A*02:01
HLA-B*07:02 = biological target: HLA-B*07:02
HLA-A*24:02 = biological target: HLA-A*24:02
HLA-B*08:01 = biological target: HLA-B*08:01
HLA-A*01:01 = biological target: HLA-A*01:01
HLA-B*18:01 = biological target: HLA-B*18:01
HLA-A*03:01 = biological target: HLA-A*03:01
HLA-A*11:01 = biological target: HLA-A*11:01
HLA-B*35:01 = biological target: HLA-B*35:01
HLA-B*51:01 = biological target: HLA-B*51:01

LLPPLLEHL
IC50 (HLA-A*02:01): 444 nM

SLASLLPHV
IC50 (HLA-A*02:01): 9.1 nM

LLLLDVAPL
IC50 (HLA-A*02:01): 10 nM

LLSLFSLWL
IC50 (HLA-A*02:01): 152 nM

IPSDLERRIL
IC50 (HLA-B*07:02): 3860 nM

LVEALYLVC
IC50 (HLA-A*02:01): 11800 nM

VIVMLTPLV
IC50 (HLA-A*02:01): 2120 nM

RMMEYGTTMV
IC50 (HLA-A*02:01): 709 nM

ALWMRLLPLL
IC50 (HLA-A*24:02): 6180 nM | IC50 (HLA-B*08:01): 33 nM

HLSYHRLLPL
IC50 (HLA-A*02:01): 4260 nM

ALARGAGTVPL
IC50 (HLA-A*02:01): 29 nM

VLNSVASLL
IC50 (HLA-A*02:01): 1140 nM

LLIDLTSFL
IC50 (HLA-A*02:01): 8.1 nM

KLANIQCLCL
IC50 (HLA-A*02:01): 97 nM

WLLPLWAAL
IC50 (HLA-A*02:01): 4.2 nM

ILKDFSILL
IC50 (HLA-A*02:01): 39 nM

LLHVHHSCPL
IC50 (HLA-A*02:01): 7840 nM

ILVLASTITI
IC50 (HLA-A*02:01): 675 nM

VMNILLQYV
IC50 (HLA-A*02:01): 2020 nM

ALTAVAEEV
IC50 (HLA-A*02:01): 1310 nM

SLTAISTTL
IC50 (HLA-A*02:01): 242 nM

LASEKVYAI
IC50 (HLA-A*02:01): 6930 nM

SLFEGVDFYT
IC50 (HLA-A*02:01): 51 nM

SLTTISTTL
IC50 (HLA-A*02:01): 237 nM

FLIVLSVAL
IC50 (HLA-A*02:01): 26 nM

HIAGSLAVV
IC50 (HLA-A*02:01): 216 nM

SLYHVYEVNL
IC50 (HLA-A*02:01): 209 nM

TIADFWQMV
IC50 (HLA-A*02:01): 4690 nM

VAANIVLTV
IC50 (HLA-A*02:01): 320 nM

RLLYPDYQI
IC50 (HLA-A*02:01): 124 nM

SISVLISAL
IC50 (HLA-A*02:01): 1560 nM

GLLQVHHSCPL
IC50 (HLA-A*02:01): 5.8 nM

AVAANIVLTV
IC50 (HLA-A*02:01): 575 nM

ALWMRLLPL
IC50 (HLA-B*08:01): 107 nM

RLGPVARTRV
IC50 (HLA-A*02:01): 581 nM

WLLPLWAALPL
IC50 (HLA-A*02:01): 3.2 nM

LWMRLLPLL
IC50 (HLA-A*24:02): 545 nM

KVLHELFGMDI
IC50 (HLA-A*02:01): 11 nM

RLLPLLALL
IC50 (HLA-A*24:02): 10200 nM

YIPSCTVVGM
IC50 (HLA-A*02:01): 9510 nM

YLLLRVLNI
IC50 (HLA-A*02:01): 57 nM

WMRLLPLLAL
IC50 (HLA-B*07:02): 2360 nM

FLFAVGFYL
IC50 (HLA-A*02:01): 1.1 nM

NLLGRFELIGI
IC50 (HLA-A*02:01): 1.8 nM

GSHLVEALY
IC50 (HLA-A*01:01): 30300 nM

IQATVMIIV
IC50 (HLA-A*02:01): 9040 nM

KMYAFTLES
IC50 (HLA-A*02:01): 880 nM

VMNILLQYVV
IC50 (HLA-A*02:01): 2310 nM

NLAQDLATV
IC50 (HLA-A*02:01): 67 nM

LYLVCGERGF
IC50 (HLA-A*24:02): 5260 nM

SVASLLPHV
IC50 (HLA-A*02:01): 1760 nM

GVFIQVYEV
IC50 (HLA-A*02:01): 460 nM

LLSILCIWV
IC50 (HLA-A*02:01): 734 nM

VCGERGFFYT
IC50 (HLA-B*18:01): 626 nM

LLQVHHSCPL
IC50 (HLA-A*02:01): 3090 nM

APVIKARMM
IC50 (HLA-B*07:02): 18300 nM

VLHELFGMDI
IC50 (HLA-A*02:01): 287 nM

ELAEYLYNI
IC50 (HLA-A*02:01): 637 nM

LVCGERGFFY
IC50 (HLA-A*03:01): 27400 nM | IC50 (HLA-A*11:01): 27200 nM

ALWGPDPAAA
IC50 (HLA-A*02:01): 1010 nM

RLQREWHTL
IC50 (HLA-A*02:01): 1230 nM

LLQEYNWEL
IC50 (HLA-A*02:01): 35 nM

NLLGRFELI
IC50 (HLA-A*02:01): 764 nM

ILAVDGVLSV
IC50 (HLA-A*02:01): 2.2 nM

KLQVFLIVL
IC50 (HLA-A*02:01): 1370 nM

RLLPLWAALPL
IC50 (HLA-A*02:01): 5.4 nM

RFKMFPEVK
IC50 (HLA-A*11:01): 18300 nM

SHLVEALYLV
IC50 (HLA-A*02:01): 2150 nM

LPLLALLAL
IC50 (HLA-B*35:01): 12300 nM | IC50 (HLA-B*51:01): 1160 nM | IC50 (HLA-B*07:02): 610 nM

SMCRFSPLTL
IC50 (HLA-A*02:01): 1150 nM

FIQVYEVERA
IC50 (HLA-A*02:01): 7020 nM

LIFDLGGGT
IC50 (HLA-A*02:01): 5420 nM

LMFWSPSHSCA
IC50 (HLA-A*02:01): 143 nM

MVWESGCTV
IC50 (HLA-A*02:01): 126 nM

TMHSLTIQM
IC50 (HLA-A*02:01): 104 nM

HPRYFNQLST
IC50 (HLA-B*07:02): 1250 nM

FLWSVFWLI
IC50 (HLA-A*02:01): 55 nM

STVASWLGPV
IC50 (HLA-A*02:01): 9230 nM

ALGDLFQSI
IC50 (HLA-A*02:01): 76 nM

HLCGSHLVEA
IC50 (HLA-A*02:01): 7540 nM

ALYLVCGER
IC50 (HLA-A*03:01): 2790 nM | IC50 (HLA-A*11:01): 28300 nM

SMPQGTFPV
IC50 (HLA-A*02:01): 631 nM

TVASRLGPV
IC50 (HLA-A*02:01): 7700 nM

LLGRFELIGI
IC50 (HLA-A*02:01): 233 nM

GERGFFYT
IC50 (HLA-B*08:01): 1380 nM

LMGDKSENV
IC50 (HLA-A*02:01): 7370 nM

FYTPKTRRE
IC50 (HLA-B*08:01): 13000 nM

FLWSVFMLI
IC50 (HLA-A*02:01): 26 nM

SLSPLQAEL
IC50 (HLA-A*02:01): 101 nM

FMTSSWWRAPL
IC50 (HLA-A*02:01): 84 nM

TLSSRVCCRT
IC50 (HLA-A*02:01): 2780 nM

HLASEKVYAI
IC50 (HLA-A*02:01): 4060 nM

VVTGVLVYL
IC50 (HLA-A*02:01): 9 nM

RLRPLCCTA
IC50 (HLA-A*02:01): 8230 nM

LNIDLLWSV
IC50 (HLA-A*02:01): 684 nM

SLEEEIRFL
IC50 (HLA-A*02:01): 472 nM

VLVEGSTRI
IC50 (HLA-A*02:01): 17200 nM

FLLSLFSLWL
IC50 (HLA-A*02:01): 16 nM

STVASRLGPV
IC50 (HLA-A*02:01): 25100 nM

ILMHCQTTL
IC50 (HLA-A*02:01): 478 nM

LLDVAPLSL
IC50 (HLA-A*02:01): 51 nM

ILDKKVEKV
IC50 (HLA-A*02:01): 11200 nM

FLQDVMNIL
IC50 (HLA-A*02:01): 70 nM

ALWGPDPAAAF
IC50 (HLA-A*24:02): 15100 nM
